The text below walks through data of paper PMC10658565, “Polymorphic nanobody crystals as long‐acting intravitreal therapy for wet age‐related macular degeneration” (Bioengineering & Translational Medicine, 2023).

As usually defined, the EC50 is the concentration that produces a half-maximal response.

B1: mNb‐WT [not stated] / recombinant VEGF‐A165 protein [not stated] (parent complex)
chain 1: MDVQLVESGGGLVQPGGSLRLSCAASGRTFSSYSMGWFRQAPGKEREFVVAISKGGYKYDAVSLEGRFTISRDNAKNTVYLQINSLRPEDTAVYYCASSRAYGSSRLRLADTYEYWGQGTLVTVSS
chain 2: APMAEGGGQNHHEVVKFMDVYQRSYCHPIETLVDIFQEYPDEIEYIFKPSCVPLMRCGGCCNDEGLECVPTEESNITMQIMRIKPHQGQHIGEMSFLQHNKCECRPKKDRARQENPCGPCSERRKHLFVQDPQTCKCSCKNTDSRCKARQLELNERTCRCDKPRR

The variants in the assay derive from B1. Put plainly: ELISA; parent: 0.73 nM.
On to chain 1 S8A, for which the EC50 is 0.82 nM.
To chain 1 E45A belongs 0.79 nM; to chain 1 K44A, 0.62 nM; to chain 1 Q118N, 0.77 nM.
Next, chain 1 K44A, chain 1 E45A: 0.91 nM.
Next, chain 1 Q14N: 0.77 nM; chain 1 Y95F: 0.8 nM.
